Literature values in article PMC12442452.
Read-outs that look alike come from different tables or passages of the source.

Experiments:
Cys25 [1] = target: T1, Cys25 (UniProt position 147, GQCGSCWAFSA); assay: kinetics; settings: apo (free) enzyme
His162 = His162 (UniProt position 284, SEQLDHGVLLV); assay: kinetics; settings: apo (free) enzyme
Cys25 [2] = target: T1, Cys25; settings: ligand-free cruzain
Cys25 [3] = target: Cys25 (UniProt position 158, GSCGSCWAFSA); settings: not stated (apo enzyme implied)

| Substance | pKa (Cys25 [1]) | pKa (His162) | pKa (Cys25 [2]) | pKa (Cys25 [3]) |
| --- | --- | --- | --- | --- |
| Cruzain (cruzipain, major cysteine protease) (Trypanosoma cruzi) | 9.7 | 6.6 | 9.8 |  |
| Papain (Carica papaya (inferred; not stated in the article)) |  |  |  | 3.3 |
